The test deals with mKO2-Nrf2 fusion molecule (mKO2 fused to amino acids 1-100 of human Nrf2, released from the probe reagent mKO2-Nrf2-100-T2A-Keap1 by self-cleavage at T2A) (human) (UniProt Q16236). Description: cell-based or functional assay.

We go through one substance from patent US20110206615A1.

Sequence of UniProt Q16236 (Q16236 other isoform, or with tags, fused parts or gaps): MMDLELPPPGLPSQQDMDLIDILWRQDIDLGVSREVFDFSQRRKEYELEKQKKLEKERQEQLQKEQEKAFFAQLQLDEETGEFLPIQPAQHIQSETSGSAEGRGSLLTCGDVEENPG

For “human Keap1 (regulatory factor, released from mKO2-Nrf2-100-T2A-Keap1 by self-cleavage at T2A) (from UniProt Q14145 1-624)”, the fluorescent intensity of mKO2 in HeLa cells after addition of DEM (oxidative stress inducer) at 100 µM came to 10 times.
